Source: US20240052038A1 (IMMUNOBRAIN CHECKPOINT, published 2024)
Changes are numbered by the printed parent chain. Names may count otherwise. Values belong to the binder of their own block, whether it stands above or below them.

Key:
[1] = target: T1, cynomolgus monkey PD-L1 on blood T lymphocytes (cynomolgus monkey, UniProt G7PSE7 19-290); experiment: receptor occupancy on blood T lymphocytes by flow cytometry, cynomolgus monkeys, up to day 12 after 13 mg/kg IV
T1 construct: also called PD-L1 receptor (cynomolgus T cells)
Method: (§1) Blood (8 mL) for PBMC isolation was collected at least one day prior to dose and 5, 14, 21 and 30-days post-injection. […] All collected blood and serum samples were frozen for subsequent analysis. […] These antibodies came from a different expression system using transfected HEK cells. Blood (8 mL) for PBMC isolation was collected at least one day prior to dose and 5, 14, 21, 30 and 45-days post-injection. […] All collected blood and serum samples were frozen for subsequent analysis.
(§2) One day prior to dosing (baseline), and on 5, 14, 21, and 30-days post treatment, 8 mL of whole blood was collected for Peripheral Blood Mononuclear Cell (PBMC) isolation and cryopreservation. In the second study, whole blood was also collected also at 45-days post treatment. Samples were analyzed for PD-L1 receptor occupancy on blood T lymphocytes and for Immunophenotype of different immune cell subpopulations. The percentage of PD-L1 receptor occupancy on blood T-lymphocytes by the antibody was assessed using the same method as described above for receptor occupancy in mice.

[2] = target: T1, cynomolgus monkey PD-L1 on blood T …; experiment: receptor occupancy on blood T lymphocytes by flow cytometry, cynomolgus monkeys, day 20 after 13 mg/kg IV (antibody cleared)
Method: as §1, §2

human PD-L1 [3] = target: T2, human PD-L1 (human, UniProt Q9NZQ7 19-238, limits assumed); experiment: SPR, kinetics
T2 construct: also called hPD-L1; Programmed Death-Ligand 1

cynomolgus monkey PD-L1 = cynomolgus monkey PD-L1 (cynomolgus monkey, UniProt G7PSE7 19-238); experiment: SPR
human PD-L1 [4] = target: T2, human PD-L1; experiment: SPR

T1 sequence (G7PSE7 entry or part of it limits assumed): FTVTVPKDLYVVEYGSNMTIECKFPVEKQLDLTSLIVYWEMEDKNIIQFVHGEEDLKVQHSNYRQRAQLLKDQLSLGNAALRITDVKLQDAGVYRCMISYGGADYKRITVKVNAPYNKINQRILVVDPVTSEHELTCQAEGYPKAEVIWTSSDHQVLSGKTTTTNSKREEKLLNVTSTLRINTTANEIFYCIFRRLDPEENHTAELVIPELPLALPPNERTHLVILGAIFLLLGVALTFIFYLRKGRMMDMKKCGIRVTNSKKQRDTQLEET
T2 sequence (Q9NZQ7 19-238 limits assumed): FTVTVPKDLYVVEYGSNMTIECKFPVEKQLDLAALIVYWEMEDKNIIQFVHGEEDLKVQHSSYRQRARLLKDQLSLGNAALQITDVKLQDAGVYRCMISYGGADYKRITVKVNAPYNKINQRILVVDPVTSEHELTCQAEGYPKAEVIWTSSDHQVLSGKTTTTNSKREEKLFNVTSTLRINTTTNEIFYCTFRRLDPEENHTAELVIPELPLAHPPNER
Sequence of cynomolgus monkey PD-L1 (G7PSE7 entry or part of it limits assumed): as the sequence (Q9NZQ7 19-238 limits assumed) above, with A33T, A34S, S62N, R68Q, Q82R, F173L, T185A, T192I, H215L counted along it

receptor occupancy [1]: > 80%
B1: Variant 1-G09 (Fc effector null) (antibody, human IgG1, kappa, L234A L235A)
heavy: EVQLVESGGGLVQPGRSLRLSCAASGFTFDDYAMHWVRQTPGKGLEWVSGISWKSNIIGYADSVKGRFTISRDNAKNSLYLQMNSLRAEDTALYYCARDITGSGSYGWFDPWGQGTLVTVSSASTKGPSVFPLAPSSKSTSGGTAALGCLVKDYFPEPVTVSWNSGALTSGVHTFPAVLQSSGLYSLSSVVTVPSSSLGTQTYICNVNHKPSNTKVDKRVEPKSCDKTHTCPPCPAPEAAGGPSVFLFPPKPKDTLMISRTPEVTCVVVDVSHEDPEVKFNWYVDGVEVHNAKTKPREEQYNSTYRVVSVLTVLHQDWLNGKEYKCAVSNKALPAPIEKTISKAKGQPREPQVYTLPPSREEMTKNQVSLTCLVKGFYPSDIAVEWESNGQPENNYKTTPPVLDSDGSFFLYSKLTVDKSRWQQGNVFSCSVMHEALHNHYTQKSLSLSPG
light: DIQMTQSPSSLSASVGDRVTITCRASQSISSYLNWYQQKPGKAPKPLIYVASSLQSGVPSSFSGSGSGTDFTLTISSLQPEDFATYYCQQSYSNPITFGQGTRLEIKRTVAAPSVFIFPPSDEQLKSGTASVVCLLNNFYPREAKVQWKVDNALQSGNSQESVTEQDSKDSTYSLSSTLTLSKADYEKHKVYACEVTHQGLSSPVTKSFNRGEC
notes: Human IgG1 with L239A, L240A, K327A; kappa light chain; also called null mutant

receptor occupancy [2]: < 20%
B2: Variant 4-G09 (Fc effector null-H315A + H440Q) (antibody, human IgG1, kappa, L234A L235A)
heavy: B1 heavy with H315A, H440Q
light: B1 light
notes: Human IgG1 with L239A, L240A, K327A, H315A and H440Q; kappa light chain; also called double mutant

receptor occupancy [1]: > 80%
receptor occupancy [2]: < 20%
B3: Variant 3-G09 (Fc effector null-H440Q) (antibody, human IgG1, kappa, L234A L235A)
heavy: B1 heavy with H440Q
light: B1 light
notes: Human IgG1 with L239A, L240A, K327A and H440Q; kappa light chain

receptor occupancy [1]: > 80%
receptor occupancy [2]: < 20%
B4: Variant 2-G09 (Fc effector null-H315A) (antibody, human IgG1, kappa, L234A L235A)
heavy: B1 heavy with H315A
light: B1 light
notes: Human IgG1 with L239A, L240A, K327A and H315A; kappa light chain

Kd (human PD-L1 [3]): 0.4 nM
Kd (cynomolgus monkey PD-L1): 0.52 nM
Kd (human PD-L1 [4]): 0.43 nM
B5: human anti-PD-L1 monoclonal antibody 84G09 (antibody, V domains shown)
VH: EVQLVESGGGLVQPGRSLRLSCAASGFTFDDYAMHWVRQTPGKGLEWVSGISWKSNIIGYADSVKGRFTISRDNAKNSLYLQMNSLRAEDTALYYCARDITGSGSYGWFDPWGQGTLVTVSS
VL: DIQMTQSPSSLSASVGDRVTITCRASQSISSYLNWYQQKPGKAPKPLIYVASSLQSGVPSSFSGSGSGTDFTLTISSLQPEDFATYYCQQSYSNPITFGQGTRLEIK
notes: also called anti-human PD-L1 antibody (clone 84G09)
